Patent publication US20140087995A1 (published 2014)
Numbered stars: 1 amine (or outer) side, 2 acyl side, 3 side chain; on linkers, the order of the positions; unused ones are H or OH. Bridge positions count the residues as written; N and C are the ends. Side chains are listed from the residue outwards. Ends that are not written are not given here. * marks the point of attachment. C20 diacid = O=C(O)CCCCCCCCCCCCCCCCCCC(=O)*; γGlu = O=C(O)[C@H](CCC(=O)[*:2])N[*:1]; AEEA = NCCOCCOCC(=O)O

T1: human calcitonin receptor (human, UniProt P30988 25-474)
T1 construct: whole, on cells; Assayed as cell membranes of BHK tk'ts 13 cells stably transfected with the human calcitonin receptor (Assay VII); also called hCTR; hCT
T1 sequence (looked up): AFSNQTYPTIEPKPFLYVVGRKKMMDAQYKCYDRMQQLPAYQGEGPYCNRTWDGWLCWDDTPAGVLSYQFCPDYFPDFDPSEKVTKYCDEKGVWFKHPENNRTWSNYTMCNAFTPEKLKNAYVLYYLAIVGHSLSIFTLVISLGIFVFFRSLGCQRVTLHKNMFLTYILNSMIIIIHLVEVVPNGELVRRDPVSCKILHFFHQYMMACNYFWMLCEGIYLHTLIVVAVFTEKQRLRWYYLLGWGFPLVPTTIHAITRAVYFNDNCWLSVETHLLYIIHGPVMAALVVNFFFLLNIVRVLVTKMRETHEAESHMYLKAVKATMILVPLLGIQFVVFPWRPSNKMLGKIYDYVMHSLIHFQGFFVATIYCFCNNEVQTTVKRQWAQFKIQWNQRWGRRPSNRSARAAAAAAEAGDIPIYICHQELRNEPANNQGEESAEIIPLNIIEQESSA


Key:
[1] = target: T1, human calcitonin receptor; assay: IC50 at hCTR divided by IC50 at hAmylin-R (SPA competition assays V and VII)
Experimental: The resulting pellet was resuspended, homogenized and centrifuged (20.000 rpm, 15 min) in a buffer containing 20 mM Na-HEPES and 0.1 mM EDTA (pH 7.4, buffer 2). The resulting pellet was resuspended in buffer 2 and protein concentration was measured (BCA protein Assay, Pierce). The homogenate was kept cold during the whole procedure. The membranes were kept at −80° C. until use. The assay was performed in a 384 well Optiplate (PerkinElmer) in a total volume of 40 ul. Membranes were mixed with SPA beads. Final concentration of membranes 35 ng/μL final and SPA beads was 0.05 mg/well. Test-compounds were dissolved in DMSO and further diluted in assay buffer (50 mM Hepes, pH 7.4, 1 mM CaCl2, 5 mM MgCl₂, 0.1% OA and 0.02% Tween20). […] The final mixture was incubated with shaking at 400 rpm for 120 min at 25° C. prior to centrifugation (1500 rpm, 10 min). Samples were analyzed on TopCounter™ (Packard). The IC₅₀ was calculated using (one site binding competition analysis) GraphPad Prism5 as a measure of receptor affinity.
Membranes were prepared in the following way; the cells were rinsed with PBS and incubated with Versene for approximately 5 min before harvesting. The cells were flushed with PBS and the cell-suspension was centrifuged for 5 min at 1000 rpm. Cells were homogenized (Ultrathurrax) in a buffer containing 20 mM Na-HEPES and 10 mM EDTA (pH 7.4) and centrifuged at 20.000 rpm for 15 min. The resulting pellet was resuspended, homogenized and centrifuged (20.000 rpm, 15 min) in a buffer containing 20 mM Na-HEPES and 0.1 mM EDTA (pH 7.4, buffer 2). The resulting pellet was resuspended in buffer 2 and protein concentration was measured (BCA protein Assay, Pierce). The homogenate was kept cold during the whole procedure. The membranes were kept at −80° C. until use. Assay was performed in a 384 well Optiplate (PerkinElmer) in a total volume of 40 ul. Membranes were mixed with SPA beads.

[2] = target: T1, human calcitonin receptor; assay: SPA competition vs 125I-calcitonin, membranes of BHK cells with human calcitonin receptor (Assay VII)
Experimental: Membranes were prepared in the following way; the cells were rinsed with PBS and incubated with Versene for approximately 5 min before harvesting. The cells were flushed with PBS and the cell-suspension was centrifuged for 5 min at 1000 rpm. Cells were homogenized (Ultrathurrax) in a buffer containing 20 mM Na-HEPES and 10 mM EDTA (pH 7.4) and centrifuged at 20.000 rpm for 15 min. The resulting pellet was resuspended, homogenized and centrifuged (20.000 rpm, 15 min) in a buffer containing 20 mM Na-HEPES and 0.1 mM EDTA (pH 7.4, buffer 2). The resulting pellet was resuspended in buffer 2 and protein concentration was measured (BCA protein Assay, Pierce). The homogenate was kept cold during the whole procedure. The membranes were kept at −80° C. until use. Assay was performed in a 384 well Optiplate (PerkinElmer) in a total volume of 40 ul. Membranes were mixed with SPA beads. Final concentration of membranes 35 ng/μL final and Final concentration of SPA beads was 0.05 mg/well. Test-compounds were dissolved in DMSO and further diluted in assay buffer (50 mM Hepes, pH 7.4, 1 mM CaCl2, 5 mM MgCl₂, 0.1% OA and 0.02% Tween20). […] The final mixture was incubated for 120 min with shaking at 400 rpm at 25° C. prior to centrifugation (1500 rpm, 10 min). Samples were analyzed on TopCounter™ (Packard). The […] was calculated using (one site binding competition analysis) GraphPad Prism5 as a measure of receptor affinity.

Ratio hCT/hAmylin binding [1]	IC50 [2]	Binder
65.3	8.68 nM	K([AEEA-γGlu-C20 diacid])CNTATCATQRLAHFLRHSSPNFGAIPSSTNVGSNTY-NH2 (disulfide 2-7; N-terminus assumed; SMILES CC[C@H](C)[C@H](NC(=O)[C@H](C)NC(=O)CNC(=O)[C@H](Cc1ccccc1)NC(=O)[C@H](CC(N)=O)NC(=O)[C@@H]1CCCN1C(=O)[C@H](CO)NC(=O)[C@H](CO)NC(=O)[C@H](Cc1c[nH]cn1)NC(=O)[C@H](CCCNC(=N)N)NC(=O)[C@H](CC(C)C)NC(=O)[C@H](Cc1ccccc1)NC(=O)[C@H](Cc1c[nH]cn1)NC(=O)[C@H](C)NC(=O)[C@H](CC(C)C)NC(=O)[C@H](CCCNC(=N)N)NC(=O)[C@H](CCC(N)=O)NC(=O)[C@@H](NC(=O)[C@H](C)NC(=O)[C@@H]1CSSC[C@H](NC(=O)[C@@H](N)CCCCNC(=O)COCCOCCNC(=O)CC[C@H](NC(=O)CCCCCCCCCCCCCCCCCCC(=O)O)C(=O)O)C(=O)N[C@@H](CC(N)=O)C(=O)N[C@@H]([C@@H](C)O)C(=O)N[C@@H](C)C(=O)N[C@@H]([C@@H](C)O)C(=O)N1)[C@@H](C)O)C(=O)N1CCC[C@H]1C(=O)N[C@@H](CO)C(=O)N[C@@H](CO)C(=O)N[C@H](C(=O)N[C@@H](CC(N)=O)C(=O)N[C@H](C(=O)NCC(=O)N[C@@H](CO)C(=O)N[C@@H](CC(N)=O)C(=O)N[C@H](C(=O)N[C@@H](Cc1ccc(O)cc1)C(N)=O)[C@@H](C)O)C(C)C)[C@@H](C)O, also called compound 69)
101	12 nM	K([AEEA-C20 diacid])CNTATCATQRLANFLRHSSPNFGAIPSSTNVGHNTY-NH2 (disulfide 2-7; N-terminus assumed; SMILES CC[C@H](C)[C@H](NC(=O)[C@H](C)NC(=O)CNC(=O)[C@H](Cc1ccccc1)NC(=O)[C@H](CC(N)=O)NC(=O)[C@@H]1CCCN1C(=O)[C@H](CO)NC(=O)[C@H](CO)NC(=O)[C@H](Cc1c[nH]cn1)NC(=O)[C@H](CCCNC(=N)N)NC(=O)[C@H](CC(C)C)NC(=O)[C@H](Cc1ccccc1)NC(=O)[C@H](CC(N)=O)NC(=O)[C@H](C)NC(=O)[C@H](CC(C)C)NC(=O)[C@H](CCCNC(=N)N)NC(=O)[C@H](CCC(N)=O)NC(=O)[C@@H](NC(=O)[C@H](C)NC(=O)[C@@H]1CSSC[C@H](NC(=O)[C@@H](N)CCCCNC(=O)COCCOCCNC(=O)CCCCCCCCCCCCCCCCCCC(=O)O)C(=O)N[C@@H](CC(N)=O)C(=O)N[C@@H]([C@@H](C)O)C(=O)N[C@@H](C)C(=O)N[C@@H]([C@@H](C)O)C(=O)N1)[C@@H](C)O)C(=O)N1CCC[C@H]1C(=O)N[C@@H](CO)C(=O)N[C@@H](CO)C(=O)N[C@H](C(=O)N[C@@H](CC(N)=O)C(=O)N[C@H](C(=O)NCC(=O)N[C@@H](Cc1c[nH]cn1)C(=O)N[C@@H](CC(N)=O)C(=O)N[C@H](C(=O)N[C@@H](Cc1ccc(O)cc1)C(N)=O)[C@@H](C)O)C(C)C)[C@@H](C)O, also called compound 91) [N^ε1-[2-[2-[2-(19-carboxynonadecanoylamino)ethoxy]ethoxy]acetyl]-[Arg17,Pro21,Pro27,His34]-h-amylin]
